Laboratory results taken from article PMC8384837, “Expanding the binding specificity for RNA recognition by a PUF domain”.

Assays:
[1] = biological target: PUM1 PUF domain R1-QFR R2-VFQ (Homo sapiens, UniProt Q14671 828-1176, S863Q;R864F;Q867R;N899V;Y900F); experiment: EMSA; 10 mM HEPES pH 7.3, 50 mM NaCl, 2 mM DTT, 0.05% Tween 20, 0.1 mg/mL BSA, 0.1 mg/mL tRNA; on ice; 10 nM RNA, 0-1 uM protein; conditions: tags: GST cleaved (HRV3C); label: 32P
[2] = biological target: T1, PUM1 PUF domain R3-THE R4-TFR (Homo sapiens, UniProt Q14671 828-1176, C935T;R936H;Q939E;N971T;H972F;Q975R); experiment: as above; conditions: tags: GST cleaved (HRV3C); label: 32P
PUM1 PUF domain [3] = biological target: T2, PUM1 PUF domain (Homo sapiens, UniProt Q14671 828-1176); experiment: as above; conditions: tags: GST cleaved (HRV3C); label: 32P
PUM1 PUF domain [4] = biological target: T2, PUM1 PUF domain; experiment: as above; conditions: tags: GST cleaved (HRV3C); label: 32P; remark: listed apart in the source
[5] = biological target: Pumilio-1 PUF domain wild type (human, UniProt Q14671 828-1168); experiment: EMSA; 10 mM HEPES pH 7.3, 50 mM NaCl, 2 mM DTT, 0.05% Tween 20, 0.1 mg/ml BSA, 0.1 mg/ml yeast tRNA; ~10 nM RNA, 0-1 uM protein, 1 h on ice; 1.2% agarose gel, 1x TBE, room temperature; conditions: protein: recombinant; tags: N-terminal GST (pGEX-6P-1) removed by HRV3C protease; label: 5' 32P
[6] = biological target: T1, PUM1 PUF domain R3-THE R4-TFR; experiment: yeast three-hybrid, YBZ-1, SC-Leu-His + 0.5 mM 3-AT, 4 days; conditions: tags: N-Gal4 AD-HA kept; label: inside an RPR1-promoter hybrid RNA with tandem MS2 sites
In short: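 The interaction score is the logarithmic change in variant frequency from input to selection. It uses log2, with a pseudocount of 1 for absent variants, and frequencies came from PCR-amplified, Illumina-sequenced repeat regions. The libraries were Pumilio-1 PUF domains randomized at the three base-contacting residues per repeat, co-expressed with matching RNA elements in strain YBZ-1 (LexA–MS2 coat fusion, HIS3 reporter). Plating lasted four days on SC-Leu (input) or SC-Leu-His + 0.5 mM 3-AT (selection).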

T2 sequence (Q14671 828-1176): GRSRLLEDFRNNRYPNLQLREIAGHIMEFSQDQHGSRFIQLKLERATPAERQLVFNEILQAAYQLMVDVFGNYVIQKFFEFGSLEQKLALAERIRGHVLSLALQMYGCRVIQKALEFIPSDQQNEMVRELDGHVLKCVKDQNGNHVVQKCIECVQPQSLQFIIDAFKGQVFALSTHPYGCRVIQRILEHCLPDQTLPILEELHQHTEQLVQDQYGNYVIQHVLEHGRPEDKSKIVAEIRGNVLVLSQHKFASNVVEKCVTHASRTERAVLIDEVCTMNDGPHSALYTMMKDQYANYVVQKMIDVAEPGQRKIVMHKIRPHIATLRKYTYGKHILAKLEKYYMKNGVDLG
Chain of Pumilio-1 PUF domain wild type (Q14671 828-1168): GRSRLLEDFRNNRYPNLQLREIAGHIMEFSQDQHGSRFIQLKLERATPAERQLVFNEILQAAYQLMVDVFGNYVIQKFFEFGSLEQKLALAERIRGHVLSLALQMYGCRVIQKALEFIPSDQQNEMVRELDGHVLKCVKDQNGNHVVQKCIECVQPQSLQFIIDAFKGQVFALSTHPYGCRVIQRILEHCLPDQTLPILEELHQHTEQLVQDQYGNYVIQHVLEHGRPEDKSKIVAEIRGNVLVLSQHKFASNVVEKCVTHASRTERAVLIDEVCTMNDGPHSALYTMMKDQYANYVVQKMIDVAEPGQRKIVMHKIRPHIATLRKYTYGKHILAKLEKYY
T1 sequence (Q14671 828-1176 C935T/R936H/Q939E/N971T/H972F/Q975R): as the sequence (Q14671 828-1176) above, with C108T, R109H, Q112E, N144T, H145F, Q148R counted along it
Chain of PUM1 PUF domain R1-QFR R2-VFQ (Q14671 828-1176 S863Q/R864F/Q867R/N899V/Y900F): as the sequence (Q14671 828-1176) above, with S36Q, R37F, Q40R, N72V, Y73F counted along it

Q: For GGUAAGUGUAAAUAGUCUGCAU (ssRNA) [UGUAAAUA], which qualitative [1] is on record?
A: The qualitative was over 1000 nM.

Q: And the qualitative [2]?
A: Its qualitative is over 1000 nM.

Q: And the Kd (PUM1 PUF domain [3])?
A: Its Kd is about 80 nM.

Q: Which qualitative (PUM1 PUF domain [4]) does the source give for GGUAAGUGUACGUAGUCUGCAU (ssRNA) here?
A: The qualitative was over 1000 nM.

Q: For GGUAAGUGUAAAUAGUCUGCAU (ssRNA) [wild-type NRE RNA], which Kd [5] is on record?
A: Its Kd is about 80 nM.

B1: UGUACGUA (ssRNA)
RNA: GGCUAGAACUAGUGGAUCCCCCGGCGCCCGGCGGCUCGAGCCCGGGUAAGUGUACGUAGUCUGCAUGCCGCCGGGCGCCAUGCCUGCAGGUCGACUCUAGAAAACAUG
Q: With B1 as the binder, how does the binding signal [6] read?
A: Its binding signal is 6.65 log2 enrichment (interaction score).

Q: For GGUAAGUGUAAAACGUCUGCAU (ssRNA) [UGUAAAAC], which qualitative (PUM1 PUF domain [4]) is on record?
A: The qualitative was over 1000 nM.

Q: Does GGUAAGUGUAAAACGUCUGCAU (ssRNA) [QFR/VFQ target RNA] bind [5]?
A: Result: no binding
